Data published in paper PMC4000066 (Cell, 2014).

Experiments:
[1] = molecular target: endogenous ASC of THP-1 cells (human (endogenous in THP-1), UniProt Q9ULZ3 1-195); test: co-IP
[2] = molecular target: ASC^FL (from His-MBP-ASC^FL after removal of His-MBP by TEV) (UniProt Q9ULZ3 1-195); test: pull-down
ASC^FL (from His-MBP-ASC^FL after removal of His-MBP by TEV), sequence (Q9ULZ3 whole entry): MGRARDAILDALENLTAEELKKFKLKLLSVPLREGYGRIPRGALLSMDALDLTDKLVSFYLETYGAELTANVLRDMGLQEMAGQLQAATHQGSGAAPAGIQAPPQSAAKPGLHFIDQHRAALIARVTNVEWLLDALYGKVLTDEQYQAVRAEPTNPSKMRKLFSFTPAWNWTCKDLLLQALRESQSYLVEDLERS

endogenous ASC of THP-1 cells, sequence (Q9ULZ3 whole entry): as above

stoichiometry N [1]	binding result [2]	Binder
~3.5 fold (caspase-1 to ASC)		endogenous caspase-1 of THP-1 cells (enzyme, human (endogenous in THP-1), UniProt P29466 1-404, looked up) MADKVLKEKRKLFIRSMGEGTINGLLDELLQTRVLNKEEMEKVKRENATVMDKTRALIDSVIPKGAQACQICITYICEEDSYLAGTLGLSADQTSGNYLNMQDSQGVLSSFPAPQAVQDNPAMPTSSGSEGNVKLCSLEEAQRIWKQKSAEIYPIMDKSSRTRLALIICNEEFDSIPRRTGAEVDITGMTMLLQNLGYSVDVKKNLTASDMTTELEAFAHRPEHKTSDSTFLVFMSHGIREGICGKKHSEQVPDILQLNAIFNMLNTKNCPSLKDKPKVIIIQACRGDSPGVVWFKDSVGVSGNLSLPTTEEFEDDAIKKAHIEKDFIAFCSSTPDNVSWRHPTMGSVFIGRLIEHMQEYACSCDVEEIFRKVRFSFEQPDGRAQMPTTERVTLTRCFYLFPGH
	binds	His-GFP-caspase-1^CARD (domain or fragment, UniProt P29466 1-91, looked up) MADKVLKEKRKLFIRSMGEGTINGLLDELLQTRVLNKEEMEKVKRENATVMDKTRALIDSVIPKGAQACQICITYICEEDSYLAGTLGLSA
